Experimental data: US11267871B2, “Topical application for an anti-HSV antibody” (priority 2014, dated 2022)

Tests used:
HSV-2 G = experiment: Topical treatment of acute genital HSV-2 infection in immunodeficient mice (survival, clinical score); type: in vivo, mice (NOD.CB17-Prkdc^scid/NCrHsd); conditions: for mice with acute genital HSV-2 infection / local genital symptoms resolved at 48 h (number) / mice with acute genital HSV-2 infection / local genital symptoms resolved at 48 h (percent): 48 h after start of topical treatment, ACV 1 mg twice per day ongoing; for mice with acute genital HSV-2 infection / local genital symptoms resolved at 48 h (number) / mice with acute genital HSV-2 infection / local genital symptoms resolved at 48 h (percent) / mice in which HSV-2 lethal encephalitis was prevented: hu2c single 200 μg; for mice in which HSV-2 lethal encephalitis was prevented: topical, ACV 1 mg twice per day for 4 days
Protocol: FIG. 1: compares the survival of immunodeficient mice with acute genital HSV-2 infection after topical treatment either with the humanized monoclonal antibody hu2c or acyclovir. Female mice (NOD.CB17-Prkdc^scid/NCrHsd) were treated with a long-acting progestin (Depo-Clinovir, Pharmacia) 7 days prior to viral challenge to increase susceptibility to HSV-2 infection and to eliminate differences caused by the estrous cycle. Anesthetized mice were vaginally challenged with a lethal dose of 5×10^5 PFU of HSV-2 G (20 μl). Mice displaying visible infection (perineal hair loss, reddening, swelling) were treated one day after viral challenge (A) once with 40 μl hu2c (5 mg/ml) (●) or 40 μl control IgG (5 mg/ml) (□) or (B) twice daily for 4 days with 40 μl ACV (25 mg/ml) (Δ) or 40 μl PBS (x). Drug solutions or PBS were applied topically to the outer genital epithelium. Mice were monitored for 36 days after viral inoculation. Mice displaying sever systemic signs and/or severe lesions/zoster were killed. Surviving mice were sacrificed at day 36. Test groups contained eight animals each, control groups contained five animals each. Kaplan-Meier survival curves were analyzed by log-rank (Mantel-Cox) test. Two-tailed significance tests were used to compare the significance level between two groups. All protocols were approved by the Animal Care and Use Committee.
Mice displaying visible infection (perineal hair loss, reddening, swelling) one day after intravaginal challenge with a lethal dose of 5×10^5 PFU of HSV-2 G (20 μl) were treated (A & C) twice daily for 4 days with (A) 40 μl PBS or (C) 40 μl ACV (25 mg/ml), or treated (B & D) once at 24 h post infection with (B) 40 μl hu2c (5 mg/ml) or (D) 40 μl control IgG (5 mg/ml). Drug solutions or PBS were applied topically to the outer genital epithelium.
Infected animals were observed daily and their clinical status was scored as follows: 0, lack of symptoms, no lesions; 1-2, redeness and/or swelling (erosion); 3, localized lesion <1 mm; 4-5, localized lesion 2-3 mm; 6-7 localized lesion 4-5 mm; 8-9, severe hyperemia, destruction of the epithelium and stroma with necrosis; 10, systemic signs, death. Animals with grading >8 were killed to prevent undue suffering. Test groups contained eight animals each, control groups contained five animals each. Arrows indicate time points of treatment.
• The ability of the humanized monoclonal antibody hu2c to alter the clinical course of acute genital HSV-2 infection in immunodeficient mice following a single topical treatment with 200 μg mAb hu2c (5 mg/ml) was investigated. To infect 100% of mice as assessed by visible lesions and culture of vaginal lavage, a viral inoculum of 5×10^5 PFU of HSV-2 G was delivered to the vagina of anesthetized mice. • Although acute HSV-1 or HSV-2 infections result in a fatal outcome in 100% of mice with severe combined immunodeficiency when compared to 70-90% mortality in immunocompetent mice, the immunodeficient model has nevertheless been chosen to discriminate a possible clinical efficacy of the therapy from an elimination of the viral infection due to immune effector cells of the mouse (Minagawa et al., Arch Virol 103, 73-82 (1988); Nagafuchi et al., J Gen Virol 44, 715-723 (1979)). Within genital mucosa the expansion rates of HSV-2 are extremely rapid. At 24 h after viral challenge infected mice received topically at the infected area either twice per day for 4 days 1 mg acyclovir (ACV) (25 mg/ml) or 40 μl buffer (PBS) or a single treatment of 200 μg mAb hu2c (5 mg/ml) or 200 μg control mAb (5 mg/ml). Clinical efficacy of the HSV-specific mAb was compared to the irrelevant mAb (isotypcontrol), ACV and PBS treatment by means of Kaplan-Meier survival curves and daily assessment of the clinical status of the mucous membranes of the genital and anal area. […]

[1] = tested on: recurrent herpes labialis; conditions: 5 times per day for 4 days, cited from earlier work
[2] = tested on: oral herpes infection (HSV-1 or HSV-2, type not analyzed); experiment: Topical application of humanized anti-HSV antibody in volunteers with acute recurrence of oral herpes (cold sores); type: in vivo, human
Protocol: 1.2 Trial Description • Between 2010-2013, twelve healthy 30-59 year old volunteers (7 female, 5 male) with an acute recurrence of oral herpes infection (cold sores) were treated. Volunteers presented themselves when the onset of initial HSV symptoms (itching of the lips, burning or tingling near the lips or mouth area) occurred or had progressed to visible skin disorders on the outer lips. […] However, sometimes HSV-2 is spread to the mouth during oral sex, causing oral herpes. The type of HSV infection (HSV-1 or HSV-2) was not analyzed. • The antibody was packaged as sterile solutions either in PBS or PBS/ash créme (1:1) at concentrations of 0.7-1 mg/ml. Participants applied approx. 10 μl of the antibody topically once, once per day for two days or for a total of three times maximum.
2. Results • ZOVIRAX Cream had been evaluated in 2 double-blind, randomized, placebo (vehicle)-controlled trials (see Zovirax N-. Zovirax Prescribing Information. http://wwwaccessdatafdagov/drugsatfda_docs/label/2002/21478_zovirax_Ib|pdf#page=1&zoom=auto,0,792). • In the Zovirax studies, subjects were instructed to initiate treatment within 1 hour of noticing signs or symptoms and continue treatment for 4 days, with application of study medication 5 times per day. […] At time of treatment several small blisters were visible. For the antibody treated HSV infection a quick recovery was observed.

[3] = 72 h after commencement of ACV treatment
[4] = one volunteer, upper lip, antibody three times

## Nc1nc(=O)c2ncn(COCCO)c2[nH]1 [ACV, 2-Amino-9-(2-hydroxyethoxymethyl)-3H-purin-6-on]
HSV-2 G
  mice with acute genital HSV-2 infection / local genital symptoms resolved at 48 h (number): 1 out of 8
  mice with acute genital HSV-2 infection / local genital symptoms resolved at 48 h (percent): 13%
  mice in which HSV-2 lethal encephalitis was prevented: 1 out of 8
HSV-2 G; [3]
  mice with no local signs at 72 h (number): 5 out of 8
  mice with no local signs at 72 h (percent): 63%
[1]
  reduction of episode duration compared with placebo: 0.5 days
[1]; placebo 5 days
  mean duration of the recurrent herpes labialis episode: 4.5 days

B1: mAb hu2c: humanized derivative of murine mAb 2c recognizing glycoprotein B of HSV-1/2; CDRs grafted into DP28/DPK13, human γ1 and κ constant chains (antibody, V domains shown)
VH: QVTLKESGPALVKPTQTLTLTCTFSGFSLSTSGMSVGWIRQPPGKALEWLAHIWWNNDKYYKPALKSRLTISKDTSKNQVVLTMTNMDPVDTATYYCARIYYGYRPYAMDYWGQGTLVTVSS
VL: DIVMTQTPLSLPVTPGEPASISCRSSQSIVHSNGNTYLEWYLQKPGQSPQLLIYKVSNRFSGVPDRFSGSGSGTDFTLKISRVEAEDVGVYYCFQGSHVPWSFGQGTKVEIKR
modifications: VH of the humanized mAb hu2c antibody; VL of the humanized mAb hu2c antibody
notes: humanized derivative of murine mAb 2c recognizing glycoprotein B of HSV-1/2; CDRs grafted into DP28/DPK13, human γ1 and κ constant chains
[2]; all participants
  spread of the infected area upon treatment: did not spread
[2]; all participants, approx. 10 μl of 0.7-1 mg/ml, one to three applications
  fast symptom and pain relief after application: ≤ 24 h
[2]; human, in vivo
  overall rates of clinical reactivation (participants' impression): tend to be reduced
[2]; one volunteer, upper lip
  occurrence of lesions: no lesions occurred
[2]; [4]
  time to disappearance of blisters: ≤ 24 h
  time until swelling subsided: ≤ 48 h
[2]; participants' report
  healing when treatment started at stage of visible external herpetic lesions: rapid healing and disappearance of crusted areas
[2]; participants' report or one volunteer with upper lip (antibody) and lower lip (Zovirax)
  course of active blisters: regressed and did not turn into weeping blisters
[2]; topical administration, acute infection of the tissue of the lips
  time to elimination of the infection: ≤ 24 h
HSV-2 G
  mice with acute genital HSV-2 infection / local genital symptoms resolved at 48 h (number): 7 out of 8
  mice with acute genital HSV-2 infection / local genital symptoms resolved at 48 h (percent): 88%
  mice in which HSV-2 lethal encephalitis was prevented: 1 out of 8
